Source: patent publication CN113444176A (WUHAN RENFU INNOVATIVE DRUG R&D CENTER CO LTD; HUMANWELL …, dated 2021)
Substitutions are numbered along the chain they refer to. Names may count otherwise. Where two headings read alike, the source gives them in different places.

B1: 鼠源抗体F3 (anti-NGF mouse monoclonal antibody F3) (antibody, mouse IgG1, kappa, V domains shown)
VH: EVMLVESGGDLVKPGGSLKLSCAASGFTFSRYAMSWVRQTPEKRLEWVATISSGGSYTYYPDSVKGRFTISRDNAKNTLYLQMSSLRSEDTAMFYCARHGEFYGTTFDVHYFDYWGQGTTLTVSS
VL: YIVLTQSPASLAVSLGQRATISCRASESVDSYGNSFMHWYQQKPGQPPKLLIYLASNLESGVPARFSGSGSRTDFTLTIDPVEADDAATYYCQQNNEDPLTFGTGTKLELKR
notes: Hybridoma antibody; also called 杂交瘤单抗F3
B2: 鼠源抗体G9 (anti-NGF mouse monoclonal antibody G9) (antibody, mouse IgG1, kappa, V domains shown)
VH: EVQLQQSGTVLARPGTSVRMSCKASGYTFTSYWMHWIKQRPGQGLEWIGAIYPGNSDTSYTQKFKGKAKLTAVTSTSTAYMELSSLTNEDSAVYYCTTPYGYDEDWYFNVWGAGTTVTVPS
VL: NIVMTQSPKSMSMSVGERVTLSCKASENVGTYVSWYQQKPEQPPKLLIYGASNRYTGVPDRFTGCGSATDFTLTISSVQAEDLADYHCGQSYSYPLTFGAGTKLELKR
notes: Hybridoma antibody; also called 杂交瘤单抗G9
B3: 人源化抗NGF抗体Ab01 (antibody, human IgG4 S228P, kappa, V domains shown)
VH: EVQLVESGGGLVKPGGSLRLSCAASGFTFSRYAMSWVRQAPGKGLEWVSTISSGGSYTYYPDSVKGRFTISRDNAKNSLYLQMNSLRAEDTAVYYCARHGEFYGTTFDVHYFDYWGQGTLVTVSS
VL: AIQLTQSPSSLSASVGDRVTITCRASESVDSYGNSFMHWYQQKPGKAPKLLIYLASNLESGVPSRFSGSGSGTDFTLTISSLQPEDFATYYCQQNNEDPLTFGGGTKVEIKR
notes: Humanised from F3; human IgG4 (S228P) heavy constant region and human kappa constant region; expressed in CHO cells
B4: 人源化抗NGF抗体Ab02 (antibody, human IgG4 S228P, kappa, V domains shown)
VH: B3 VH with K13Q, E46V, S78T
VL: EIVLTQSPATLSLSPGERATLSCRASESVDSYGNSFMHWYQQKPGQAPRLLIYLASNLESGIPDRFSGSGSGTDFTLTISRLEPEDFAVYYCQQNNEDPLTFGGGTKVEIKR
notes: as for B3
B5: 人源化抗NGF抗体Ab03 (antibody, human IgG4 S228P, kappa, V domains shown)
VH: B3 VH with K13Q
VL: B4 VL with D64A, R81S
notes: as for B3

Tests used:
[1] = target: T1, 重组人NGF蛋白 (recombinant human nerve growth factor) (human, UniProt P01138 122-241); experiment: SPR, Biacore 8K, NGF coupled to CM5 chip, antibody as analyte, 1:1 binding model
T1 construct: also called 重组NGF蛋白; 重组NGF抗原
T1 sequence (P01138 122-241 limits assumed): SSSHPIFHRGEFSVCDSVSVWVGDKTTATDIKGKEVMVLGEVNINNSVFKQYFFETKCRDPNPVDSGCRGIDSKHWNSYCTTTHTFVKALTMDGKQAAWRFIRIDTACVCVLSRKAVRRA

重组BDNF (脑源性神经营养因子) [2] = target: T2, 重组BDNF (脑源性神经营养因子) (Helarctos malayanus (Malayan sun bear) …, UniProt O18753 129-247); experiment: competition ELISA: coated NGF, antibody preincubated with recombinant BDNF
T2 sequence: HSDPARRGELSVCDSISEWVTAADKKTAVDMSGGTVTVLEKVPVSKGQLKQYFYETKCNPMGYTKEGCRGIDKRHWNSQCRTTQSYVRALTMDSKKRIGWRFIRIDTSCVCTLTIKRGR

重组NT3 (神经营养因子3) = target: T3, 重组NT3 (神经营养因子3) (Rattus norvegicus (Rat), UniProt P18280 140-258); experiment: SPR, Biacore 8K, CM5 chip, antibody as analyte
T3 sequence: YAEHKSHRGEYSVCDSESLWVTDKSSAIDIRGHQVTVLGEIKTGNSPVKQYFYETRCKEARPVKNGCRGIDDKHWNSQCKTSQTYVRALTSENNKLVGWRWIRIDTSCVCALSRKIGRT

重组NT4 (神经营养因子4) = target: T4, 重组NT4 (神经营养因子4) (Homo sapiens (Human), UniProt P34130 81-210); experiment: SPR, Biacore 8K, CM5 chip, antibody as analyte
T4 sequence: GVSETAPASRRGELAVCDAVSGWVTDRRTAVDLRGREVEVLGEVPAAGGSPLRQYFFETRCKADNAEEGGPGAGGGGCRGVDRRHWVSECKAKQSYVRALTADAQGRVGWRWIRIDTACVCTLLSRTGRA

[3] = target: T1, 重组人NGF蛋白 (recombinant human nerve …); experiment: SPR, Biacore 8K, NGF coupled to CM5 chip, antibody as analyte, 1:1 binding model; remark: listed apart in the source
重组BDNF (脑源性神经营养因子) [4] = target: T2, 重组BDNF (脑源性神经营养因子); experiment: SPR, Biacore 8K, CM5 chip, antibody as analyte

Row | Binder | Kd [1] [nM] | koff [1] [s⁻¹] | kon [1] [M⁻¹ s⁻¹] | binding result (重组BDNF (脑源性神经营养因子) [2]) | binding result (重组NT3 (神经营养因子3)) | binding result (重组NT4 (神经营养因子4)) | Kd [3] [nM] | koff [3] [s⁻¹] | kon [3] [M⁻¹ s⁻¹] | binding result (重组BDNF (脑源性神经营养因子) [4])
1 | B1 | 0.335 | 0.000121 | 363000 |  |  |  |  |  |  | 
2 | B2 | 1.29 | 0.000283 | 219000 |  |  |  |  |  |  | 
3 | B3 |  |  |  | no binding | no binding | no binding | 0.151 | 4.35e-05 | 287000 | 
4 | B4 |  |  |  |  | no binding | no binding | 0.137 | 4.02e-05 | 294000 | no binding
5 | B5 |  |  |  |  | no binding | no binding | 0.0918 | 2.78e-05 | 303000 | no binding
